Tested on: peptide library, one residue held at a place counted from the S/T acceptor
Assay: relative phosphorylation of the sub-library (ratio to the mean residue at this position); higher = residue favoured
Summary of the method: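 Relative sub-library phosphorylation is a ratio to the mean residue at the same position. Purified recombinant kinases were incubated under kinase-specific conditions with biotinylated degenerate peptide sub-libraries, each fixing one residue at one position around a central Ser/Thr, using 50 μM peptide and 50 μM ATP spiked with γ-32P-ATP for 90 min. Spots captured on streptavidin membranes were phosphorimaged and quantified by densitometry.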

Chain of UHMK1, construct: Full length, rat (Q63285 whole entry, looked up): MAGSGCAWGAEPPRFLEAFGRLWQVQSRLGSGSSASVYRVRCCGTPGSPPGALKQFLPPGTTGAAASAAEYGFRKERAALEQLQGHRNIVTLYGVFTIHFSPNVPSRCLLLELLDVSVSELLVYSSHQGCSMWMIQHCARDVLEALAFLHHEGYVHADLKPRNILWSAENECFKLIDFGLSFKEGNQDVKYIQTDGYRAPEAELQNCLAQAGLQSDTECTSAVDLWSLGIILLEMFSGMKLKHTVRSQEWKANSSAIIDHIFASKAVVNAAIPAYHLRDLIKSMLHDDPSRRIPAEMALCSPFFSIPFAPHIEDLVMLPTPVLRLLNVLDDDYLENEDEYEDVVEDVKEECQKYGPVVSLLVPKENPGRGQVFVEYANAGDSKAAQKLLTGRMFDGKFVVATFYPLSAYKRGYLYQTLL

PRKG1, construct: Full length, human (from UniProt Q13976)
relative phosphorylation
Details | at +1 | at +2 | at +3 | at +4 | at -1 | at -2 | at -3 | at -4 | at -5
A fixed | 0.819 | 1.43 | 0.964 | 0.841 | 0.831 | 0.24 | 0.611 | 1.1 | 1.11
D fixed | 0.195 | 0.45 | 0.572 | 0.5 | 0.21 | 0.0553 | 0.075 | 0.315 | 0.381
E fixed | 0.236 | 0.242 | 0.458 | 0.419 | 0.193 | 0.0546 | 0.0892 | 0.395 | 0.517
F fixed | 1.29 | 1.16 | 1.23 | 1.13 | 1.05 | 0.201 | 0.447 | 0.986 | 1.08
G fixed | 0.479 | 0.901 | 1.06 | 1.07 | 0.416 | 0.248 | 0.684 | 0.878 | 1.06
H fixed | 1.2 | 1.62 | 1.49 | 1.31 | 1.25 | 0.518 | 1.48 | 1.3 | 1.24
I fixed | 1.73 | 1.25 | 1.02 | 1.19 | 0.958 | 0.168 | 0.262 | 0.75 | 0.82
K fixed | 0.623 | 0.642 | 0.669 | 0.715 | 1.42 | 5.12 | 2.17 | 1.53 | 1.43
L fixed | 1.45 | 0.936 | 1.07 | 1.22 | 1.33 | 0.166 | 0.239 | 0.996 | 0.779
M fixed | 1.56 | 1.03 | 1.26 | 1.22 | 1.43 | 0.171 | 0.351 | 1.31 | 0.877
N fixed | 0.589 | 0.94 | 0.909 | 1.15 | 0.787 | 0.264 | 0.329 | 0.891 | 0.905
P fixed | 0.177 | 0.576 | 0.743 | 1.35 | 0.718 | 0.13 | 0.421 | 0.58 | 0.8
Q fixed | 0.967 | 1.16 | 0.964 | 1.02 | 0.868 | 0.402 | 0.674 | 0.851 | 0.848
R fixed | 0.982 | 0.6 | 0.861 | 0.754 | 1.95 | 8.27 | 7.6 | 2.14 | 1.81
V fixed | 2.26 | 1.53 | 1.03 | 0.847 | 1.16 | 0.544 | 0.273 | 0.77 | 0.914
W fixed | 1.12 | 1.35 | 1.33 | 1.24 | 0.797 | 0.22 | 0.482 | 1.06 | 1.25
Y fixed | 1.33 | 1.2 | 1.38 | 1.02 | 1.64 | 0.23 | 0.82 | 1.15 | 1.19
pThr fixed | 0.343 | 0.228 | 0.412 | 0.444 | 0.174 | 0.142 | 0.214 | 0.542 | 0.627
pTyr fixed | 0.365 | 0.324 | 0.493 | 0.5 | 0.324 | 0.098 | 0.248 | 0.487 | 0.659

UHMK1, construct: Full length, rat (from UniProt Q63285)
relative phosphorylation
Details | at +1 | at +2 | at +3 | at +4 | at -1 | at -2 | at -3 | at -4 | at -5
A fixed | 0.707 | 1.1 | 1.58 | 1.14 | 1.16 | 1.12 | 0.872 | 0.961 | 0.981
D fixed | 0.246 | 0.442 | 0.33 | 0.594 | 1.67 | 3.17 | 3.13 | 1.43 | 1.11
E fixed | 0.266 | 0.515 | 0.397 | 1.54 | 0.818 | 1.86 | 2.01 | 1.14 | 1.02
F fixed | 0.343 | 1.09 | 1.12 | 0.824 | 0.666 | 0.678 | 0.626 | 0.742 | 0.715
G fixed | 0.86 | 1.08 | 0.906 | 0.915 | 1.54 | 1.22 | 1.11 | 1.02 | 0.994
H fixed | 0.349 | 0.936 | 0.99 | 0.78 | 0.872 | 0.714 | 0.822 | 0.872 | 1.45
I fixed | 0.665 | 1.18 | 0.77 | 1.36 | 0.636 | 0.663 | 0.704 | 0.917 | 0.931
K fixed | 0.437 | 1.07 | 0.477 | 0.761 | 0.939 | 0.636 | 0.625 | 1.15 | 1.64
L fixed | 0.363 | 1.02 | 0.872 | 0.86 | 0.808 | 0.677 | 0.672 | 0.95 | 1.22
M fixed | 0.362 | 0.76 | 0.601 | 0.847 | 0.73 | 0.599 | 0.647 | 0.703 | 0.748
N fixed | 0.299 | 0.664 | 0.402 | 0.588 | 1.36 | 0.945 | 1.09 | 1.28 | 1.18
P fixed | 10.2 | 2.02 | 4.75 | 1.07 | 1.9 | 1.37 | 1.17 | 1.16 | 0.952
Q fixed | 0.321 | 0.729 | 0.447 | 1.46 | 0.957 | 0.693 | 0.801 | 0.769 | 0.669
R fixed | 0.388 | 0.958 | 0.829 | 0.681 | 0.81 | 0.592 | 0.674 | 0.677 | 0.749
V fixed | 0.475 | 1.37 | 0.887 | 1.89 | 0.763 | 0.786 | 0.69 | 0.734 | 0.758
W fixed | 0.362 | 0.831 | 0.732 | 0.792 | 0.681 | 0.631 | 0.665 | 1.79 | 1.13
Y fixed | 0.337 | 1.25 | 0.91 | 0.891 | 0.687 | 0.642 | 0.685 | 0.712 | 0.749
pThr fixed | 0.306 | 0.654 | 0.572 | 0.747 | 1.2 | 5.01 | 2.73 | 1.9 | 2.82
pTyr fixed | 0.357 | 0.536 | 0.505 | 1.06 | 0.702 | 2.41 | 2.11 | 1.36 | 0.883
